According to the supplement of paper PMC12764529:

Assay: folding stability dG unfold (combined trypsin and chymotrypsin); higher = more stable
Protocol: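 Folding stability of de novo designed mini-proteins (<80 aa, no Cys; designed by TrROS, TrMRF, ProteinMPNN and the joint model) was measured by cDNA display proteolysis with trypsin and chymotrypsin. Each protease was used at 11 concentrations in a threefold dilution series plus a no-protease condition. K50 was inferred by Bayesian fitting of sequencing counts, and dG unfold was derived against a sequence-predicted unfolded-state K50 (Tsuboyama et al. method). Sequences shown include variable-length N-terminal GS-type padding (SAGGSAGG...) inside a display construct carrying a PA tag. Rows were kept only if the AF2 dimer inter-PAE was >15, to exclude likely homo-oligomers.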

Folding stability dG unfold, < -1 kcal/mol:
SAGGSAGGSAGGSGSMEPQVVLRVTDTRGGNPTVTIYSPDVPLPPSPTTTVEPRPVSLESAGGSAGGSAGGS [r4_107_JUSTAS]
SAGGSAGGSAGGSMKISLEFKVPIYEEFPGKEKPVEEVEVPVEVPENNEEEAEKIKKELSAGGSAGGSAGGS [r4_153_JUSTAS]
SAGGSAGGSAGGSMVAYITTKGKKLEIEVPEDLPEEIKEELKKKGIPIESITFEEVEPESAGGSAGGSAGGS [r10_405_JUSTAS]
SAGGSAGGSAGGSMVTTKDPNSPVTYTLVPRPTPEELVVKTTTNPDGTPTVTLLPASLLSAGGSAGGSAGGS [r4_434_JUSTAS]
SAGGSAGGSAGGSMYRIEIKMPNNPRTIWVPPDELPDDDLEEIAKENFPNIDKIKVWRWSAGGSAGGSAGGS [r4_235_TrROS]
SAGGSAGGSAGGSPEELAAAIRAEGREAEIEVTPDEVTIRLTAPDGRRSTLTVPRAALASAGGSAGGSAGGS [r10_1029_JUSTAS]
SAGGSAGGSAGGSPFTIRNPNGMQVRIDDFDPEEGKVKIEIEMPNKPVEYPIPLDDIIFSAGGSAGGSAGGS [r4_110_TrROS]
SAGGSAGGSAGGSPMLLVRVKKTNKWISLEEALEEAEKKGEEIEIEEVEVVELPPGQEPSAGGSAGGSAGGS [r4_479_TrROS_Hall]
SAGGSAGGSAGGSQNEVQIPFNNMPPQQARNIADEALDKNKDIENIEVERDDGMFKVKVSAGGSAGGSAGGS [r4_330_TrROS]
SAGGSAGGSAGGSRKINIFFDDPEQARKFAREIRNEGLPPEDMPIKVEITPIPPEDMGASAGGSAGGSAGGS [r4_281_TrROS]
SAGGSAGGSAGGSTPSGTLKEVSEEVEPDGIRITTTTYSLPNPGVFKTVVTVEPEAREESAGGSAGGSAGGS [r4_163_JUSTAS]
SAGGSAGGSAGGSVKTPEGVEVAPDEPVEERVEHPPVARPVKVTLYALPNSNEYSEEIASAGGSAGGSAGGS [r4_13_JUSTAS]
SAGGSAGGSAGGSVVPPGAKVKVTLEGEEKVVEADSLSEIGEIKIGDKWVKVKKIEVEGSAGGSAGGSAGGS [r4_214_TrMRF]
SAGGSAGGSAGGTIKELAKEAAKKNPGWVPIRIPLPNGNPWKIRVQVDEPGKNRIEIEPSAGGSAGGSAGGS [r10_395_TrROS]
SAGGSAGGSAGGTISFPTSSGLIKVEDMTIEEAKEKLKKENPNAKVIKLPTPNVYLIEVKSAGGSAGGSAGG [r7_370_JUSTAS]
SAGGSAGGSAGGTVEELAKQIQEEWQENGFKVEKVEVEDGTIKIEWKNGRQREIPFEKGSAGGSAGGSAGGS [r10_169_TrROS]
SAGGSAGGSAGGWYISIEPKNKKEKTIMIPPGDPDILEELADNGDRVSIFDPKNGKEFKVSAGGSAGGSAGG [r7_430_TrROS]
SAGGSAGGSAGKIRIDARPNGNWRAHYPGGKEHEFNSPDDIKDELEKKFPNFDIIEIEPWSAGGSAGGSAGG [r11_806_TrROS]
SAGGSAGGSAGKKIEIDEANPEENMYRISFPDKRTHQFDSAEDLKEQIPPGIPVEIEPLKSAGGSAGGSAGG [r17_295_TrROS]
SAGGSAGGSAGKTIMIRDPEALKKLPENQKIRIPDGKPFKIKKVEYVEENGWHRFTIKPESAGGSAGGSAGG [r11_316_TrROS]
SAGGSAGGSAGLNVGDVVVEVEAGTEYEFLIPNPAKLVKVKVVPDPTTNELKVEEAKVYDLKSAGGSAGGSA [r18_222_TrMRF]
SAGGSAGGSAGMLYRALVPHPDGSFSTALSEDARELERELLEATGIPPENIKIEPIPLETSAGGSAGGSAGG [r17_169_TrMRF]
SAGGSAGGSAGMNKKVVATFTDPNSDTTTTLVGPEEAFKSQFPPETASYSLTTVPEEALLSAGGSAGGSAGG [r11_334_JUSTAS]
SAGGSAGGSAGMPFKITKVTPDGKITIYDGGNPITIPPGSDHIKIEFGGGTKEIKIPPGMSAGGSAGGSAGG [r11_647_TrROS]
SAGGSAGGSAGMTTYEGTDPEELREAVEAEAKARGVEIEITSVTTSPDGKYTLDVKVTPPSAGGSAGGSAGG [r11_304_JUSTAS]
SAGGSAGGSAGNIEVNGDRIKIRFEGGHEFTFPNLPPGKPIEFKFNNQPFRIRDVEVEPPSAGGSAGGSAGG [r11_16_TrROS]
SAGGSAGGSAGPDDFVTLTETIVEEIDPNLAELPPEVAERLVKEGVKVIEKVLTKVAPPSLLSAGGSAGGSA [r18_127_JUSTAS]
SAGGSAGGSAGPEVRPAPTPDGREVWVLRRTRRHPGPGDGVVVEEEVVPADDPEALRRRASAGGSAGGSAGG [r11_967_TrMRF]
SAGGSAGGSAGPKEPIYYRLRIEPPNGETREFEFPVGASVEDIAKEFNIPPGGRVELEPVSAGGSAGGSAGG [r11_340_TrROS]
SAGGSAGGSAGPKPVMWRIEFDNPDNGQKQEITIMIPPDDPEQAEEIAKKIGPNVKIEPVSAGGSAGGSAGG [r11_250_TrROS]
SAGGSAGGSAGPKWKTINFPIDLKPGQSAKEIAKKFAEANPDMEIDGFNPERGWASITVPSAGGSAGGSAGG [r11_465_TrROS]
SAGGSAGGSAGPPFEVVGVSRHGDSVTVLARNPDSDELVASTFTNGVIGSTAVIPSEEVGSAGGSAGGSAGG [r11_19_TrMRF]
SAGGSAGGSAGPPVPKLFKVKEVTYHPGPKTVTVKTENGETITVPPGVAENVPPGGYLAASAGGSAGGSAGG [r11_124_TrMRF]
SAGGSAGGSAGRMYIIRNPGKKVIIPRGWMPKLQKKNPNVEIEEFESPEDADKAQDKALDSAGGSAGGSAGG [r11_60_TrROS]
SAGGSAGGSAGSMTVLEEEEIELPDDVVLTRLKVPGEELIRIEIPEEGKEEIIPASEWPGSAGGSAGGSAGG [r17_286_JUSTAS]
SAGGSAGGSAGSMVLESEEPIPETGEPVLVKTTLSEEPGRERTIVTTYRDGKPLSTTVELSAGGSAGGSAGG [r11_631_JUSTAS]
SAGGSAGGSAGSPPDQTVTITTTVVTTETTTYPGTPGVTVPRTVVTTVPVTLPVTDPALLSAGGSAGGSAGG [r11_734_JUSTAS]
SAGGSAGGSAGSPSEVKYSEEVLEEPLPGGVPYRLVVRTRTVLEGDKVVEEEEETELVLLSAGGSAGGSAGG [r11_35_JUSTAS]
SAGGSAGGSAGTEISLPSSLPDRPIETVPVEIVSPGPGDPRRETINVTRTPDRVLAVDRRSAGGSAGGSAGG [r11_21_JUSTAS]
SAGGSAGGSAGTIRNPGMEFTIKKDPNDKVVVKMNDQERTIRVGKPIYFPGGMPFRIEPASAGGSAGGSAGG [r11_147_TrROS]
SAGGSAGGSAGVFWRIRMPGHTIPIPIEGDLNEAKDYIRDEMREHHGEPIDPDNIEIEIVSAGGSAGGSAGG [r11_1028_TrROS]
SAGGSAGGSAGVKPGQTIEVPGAKITVEEVDGKLVLKVEELPPPPAPEVEVKRYVSEEDLSAGGSAGGSAGG [r11_534_TrROS_Hall]
SAGGSAGGSAGWIKEALRDMPPGKPRRIPIRNPDGNPIKIRIKVDRDPENGKYEVPIEIVSAGGSAGGSAGG [r11_343_TrROS]
SAGGSAGGSAGYIMIKSPEMAEEMAKPGYEIEVEPVPPKDINNGDPNDTMYIIEIKPPGKSAGGSAGGSAGG [r11_168_TrROS]
SAGGSAGGSAINLADIHEVEVEEIPEDPTAVYRVRARLPEPGVPVDFLLVRFPDGSVRFYGSAGGSAGGSAG [r3_234_TrMRF]
SAGGSAGGSAKIKVEWEQHPEGYNLVKVEIPNPDNGKKKKVEGPFDSLEDAEDEAKELLKKSAGGSAGGSAG [r3_174_TrROS]
SAGGSAGGSAKKIEIDPERDPNGMHLVEVTRRDPGNGKKKDIPFNVNPGKMTPEEIKDLAKSAGGSAGGSAG [r3_127_TrROS]
SAGGSAGGSALLPLPEDAVLEVPFPGTEEEAEVFAAELAKAFPVGEITLEKEPTSYRLVVRSAGGSAGGSAG [r3_73_TrMRF]
SAGGSAGGSAMNPSEPYVTLTETVVEEAEEVVETFPGYGVYKYTETKLKTTVKVTTVPKSLLSAGGSAGGSA [r18_137_JUSTAS]
SAGGSAGGSAMPEEEKPPIVRTVVLQADGEPIVLTSKPDEEIKLPPSLANAVVLEEEVSPGLSAGGSAGGSA [r18_415_JUSTAS]
SAGGSAGGSAMPVVEIGLEMEPYEPEAGGKLMLVPIKDNLLPEHALAAARLLEPLGVVTAPSAGGSAGGSAG [r3_157_TrMRF]
SAGGSAGGSANFRILVDPPTNKIWIFDPPGYVYKIKVDPKEGKMKHEPVPIPPDDLPPNAFKSAGGSAGGSA [r18_59_TrROS]
SAGGSAGGSANLEAAKKLFKDYPPGEEREIPIRVRTPGKPVPFRIKIYYPEDGNMKIDIEPYSAGGSAGGSA [r18_493_TrROS]
